According to patent US20250101080A1 (BIOSCEPTRE AUST, published 2025):
Where a chain is given by its changes, count along the chain named.

T1: dysfunctional (non-functional) P2X7 receptor expressed on human cancer cells (human, UniProt Q99572 1-595)
T1 sequence: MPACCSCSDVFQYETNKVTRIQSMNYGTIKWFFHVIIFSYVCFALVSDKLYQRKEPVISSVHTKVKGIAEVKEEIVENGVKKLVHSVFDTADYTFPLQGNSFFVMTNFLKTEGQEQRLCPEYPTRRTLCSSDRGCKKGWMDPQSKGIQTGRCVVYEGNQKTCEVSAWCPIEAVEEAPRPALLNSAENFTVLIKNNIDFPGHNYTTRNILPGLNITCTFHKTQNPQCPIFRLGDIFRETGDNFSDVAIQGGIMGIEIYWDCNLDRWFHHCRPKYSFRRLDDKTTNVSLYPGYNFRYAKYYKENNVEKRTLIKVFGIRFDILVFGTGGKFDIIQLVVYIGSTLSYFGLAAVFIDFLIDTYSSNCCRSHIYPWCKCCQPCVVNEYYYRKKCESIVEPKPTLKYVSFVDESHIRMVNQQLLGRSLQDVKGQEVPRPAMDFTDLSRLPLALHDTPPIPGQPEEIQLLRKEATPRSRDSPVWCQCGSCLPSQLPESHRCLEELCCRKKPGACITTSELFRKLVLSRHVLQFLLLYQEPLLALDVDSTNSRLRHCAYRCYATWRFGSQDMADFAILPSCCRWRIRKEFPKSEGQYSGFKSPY

T2: EXD2_K193A (nf-P2X7) surface fusion protein on HEK293 cells (human, UniProt Q99572 47-332)
T2 sequence: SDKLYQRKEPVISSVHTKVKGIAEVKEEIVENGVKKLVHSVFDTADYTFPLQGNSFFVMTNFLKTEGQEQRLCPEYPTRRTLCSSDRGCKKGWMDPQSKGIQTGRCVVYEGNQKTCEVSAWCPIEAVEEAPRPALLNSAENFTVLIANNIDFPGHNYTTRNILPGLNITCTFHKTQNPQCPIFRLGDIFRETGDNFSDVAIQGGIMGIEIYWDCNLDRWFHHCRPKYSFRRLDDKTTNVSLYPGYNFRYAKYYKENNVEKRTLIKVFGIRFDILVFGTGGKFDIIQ

B1: PEP2-2-1-1 CAR (other)
chain: EVQLLESGGGLVQPGGSLRLSCAASGFTFRNHDMGWVRQAPGKGLEWVSAISGSGGSTYYADSVKGRFTISRDNSKNTLYLQMNSLRAEDTAVYYCAEPKPMDTEFDYRSPGTLVTVSSGGGESKYGPPCPSCPAPPVAGPSVFLFPPKPKDTLMISRTPEVTCVVVDVSQEDPEVQFNWYVDGVEVHNAKTKPREEQFNSTYRVVSVLTVLHQDWLNGKEYKCKVSNKGLPSSIEKTISKAKGQPREPQVYTLPPSQEEMTKNQVSLTCLVKGFYPSDIAVEWESNGQPENNYKTTPPVLDSDGSFFLYSRLTVDKSRWQEGNVFSCSVMHEALHNHYTQKSLSLSLGKPFWVLVVVGGVLACYSLLVTVAFIIFWVRSKRSRLLHSDYMNMTPRRPGPTRKHYQPYAPPRDFAAYRSRDQRLPPDAHKPPGGGSFRTPIQEEQADAHSTLAKIRVKFSRSADAPAYQQGQNQLYNELNLGRREEYDVLDKRRGRDPEMGGKPRRKNPQEGLYNELQKDKMAEAYSEIGMKGERRRGKGHDGLYQGLSTATKDTYDALHMQALPPR
B2: PEP2-472-2 CAR (other)
chain: B1 chain with F27Y, R30P, N31M, H32K, S57G, S118L, S119E

Assays:
[1] = target: T1, dysfunctional (non-functional) P2X7 …; experiment: cell-based or functional assay
[2] = target: T2, EXD2_K193A (nf-P2X7) surface fusion …; experiment: cell-based or functional assay

Binder | fold change in cell killing against empty vector transduced CD8 T cells (CytoTox 96 assay, 4 hours, 1:1 ratio, MDA-MB-231 cells) [1] | fold change in cell killing against empty vector transduced CD8 T cells (CytoTox 96 assay, 4 hours, 1:1 ratio) [2]
B1 | ~2.5 fold | ~15 fold
B2 | ~2.25 fold | ~11 fold
